Laboratory results: patent US20230399407A1 (KOREA UNIVERSITY RESEARCH AND BUSINESS FOUNDATION, published 2023)
Residue numbers refer to the chain shown, from its start.

B1: scFv antibody variant JS9 (scFv, V domains shown)
VH: EVQLVGSGGGVVQPGRSLRLSCAASGFNFDDHAMHWVRQAPGKGLEWVSSISGSGGDTYYADSVKGRFTIARDNSKNTLYLQMNSLRAEDTAVYYCATEARGLAHWGQGTLVTVSS
VL: SSELTQDPAVSVALGQTASITCSGHKLGERYACWYQQKPGQSPVLVIYQDTKRPSGIPERFSGSNTGNTATLTITGTQAMDEADYYCQAWDSSTVVFGGGTKLTVLG
B2: scFv antibody variant JS144 (scFv, V domains shown)
VH: QVQLQESGGGLVQPGGSLRLACAGSGFTFSNFAMAWVRLAPGKGLEWVSGISDDGTITDYADSVKGRFTISRDNSKNTLYLQMNSLRAEDTAVYYCVRVPSPAPVQGPDYWGQGTTVTVSS
VL: DVVMTQSPSAMSASVGDRVTITCRASQGISNYLAWFQQKPGKVPKRLIYAASSLQGGVPSRFRGRGSGTDFTLSISCLQSEDFATYYCQQYHSYPLTFGGGTKLSVLG
B3: scFv antibody variant JS116 (scFv, V domains shown)
VH: B2 VH with S101P
VL: B2 VL
notes: No full VH/VL is printed
B4: scFv antibody variant JS30 (scFv, V domains shown)
VH: EVQLVESGPGQVKPSETLSLTCSVSGGSISSRDWWGWVRQPPGEGLEWIGEIYHSGTTNYNPSLKSRVTMSMDTSKNQLSLKLTGVTAVDTAVYYCVTYSASDAAFDSWGQGTLVTVSS
VL: ETTLTQSPSSLSASVGDRITITCRASQSISTCLNWYQQKPGKAPKSLIYGASILQSGVSSQFSGSGPGTDFTLTIGSLQPEGFATYYCQQGNSVPLTFGGGTKVDIKR
B5: scFv antibody variant JS41 (scFv, V domains shown)
VH: B4 VH with S102Y
VL: B4 VL with C32Y, N34S, I53N, S63R, G76S, G82D
B6: scFv antibody variant JS48 (scFv, V domains shown)
VH: B2 VH with A21T, R98K, V105M, T116L
VL: B4 VL with I19V, C32Y, I53N, S65R, G76S, G82D

Key:
[1] = biological target: T1, Fc alpha receptor-ECD-streptavidin-Alexa488 (human, UniProt P24071 22-227, labeled with Alexa488 fluorescent molecules (sites not given)); test: flow cytometry, scFv displayed on E. coli spheroplasts, 50 nM Alexa488-labelled antigen
T1 construct: Tetrameric antigen made in Expi293F cells and labelled with Alexa488 for flow cytometry; Any linker or purification tag (Ni-NTA resin was used) is not described; also called Fc alpha receptor-ECD-streptavidin-Alexa488 probe; Fc alpha receptor-ECD-streptavidin-Alexa488 antigen; not shown: streptavidin tag
T1 sequence (P24071 22-227 limits assumed): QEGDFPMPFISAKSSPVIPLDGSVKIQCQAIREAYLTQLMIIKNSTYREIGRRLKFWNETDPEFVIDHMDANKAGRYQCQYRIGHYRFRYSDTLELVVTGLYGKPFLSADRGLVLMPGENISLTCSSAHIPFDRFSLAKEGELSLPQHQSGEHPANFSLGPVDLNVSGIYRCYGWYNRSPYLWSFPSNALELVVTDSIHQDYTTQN

[2] = biological target: T1, Fc alpha …; test: flow cytometry, legend of FIG. 8

Row | Binder | binding result [1] | binding result [2]
1 | B1 | binds | 
2 | B2 | binds | 
3 | B3 |  | binds
4 | B4 | binds | 
5 | B5 | binds | 
6 | B6 | binds | 
